Reference: PMC2665295 (Biochemistry, 2008)
Like-named read-outs stand apart in the source and are kept apart here.

Tests used:
Test in all cases: ITC
[1] = target: T1, CaMN composed of amino acids 1–75 (UniProt P0DP23 2-76)
[2] = target: T2, CaMN composed of amino acids 1–80 (UniProt P0DP23 2-81)
[3] = target: T3, CaMC composed of amino acids 76–148 (UniProt P0DP23 77-149)
[4] = target: T1, CaMN composed of amino acids 1–75; remark: listed apart in the source
[5] = target: T2, CaMN composed of amino acids 1–80; remark: listed apart in the source
[6] = target: T3, CaMC composed of amino acids 76–148; remark: listed apart in the source
wild-type calmodulin = wild-type calmodulin (UniProt P0DP23 1-149)
[7] = target: T1, CaMN composed of amino acids 1–75; remark: listed apart in the source
[8] = target: T2, CaMN composed of amino acids 1–80; remark: listed apart in the source
[9] = target: T3, CaMC composed of amino acids 76–148; remark: listed apart in the source
[10] = target: T1, CaMN composed of amino acids 1–75; remark: listed apart in the source
[11] = target: T2, CaMN composed of amino acids 1–80; remark: listed apart in the source
[12] = target: T3, CaMC composed of amino acids 76–148; remark: listed apart in the source

B1: CaMKII(291–312) peptide (peptide)
peptide: Ac-KKFNARRKLKGAILTTMLATRN-NH2
For B1, the Kd [1] was 280 nM, the dH [1] was 1.9 kcal/mol and the “dH1 (binding mode 1)” value [2] was 3.9 kcal/mol. For the same binder, the “dH2 (binding mode 2)” value [2] was 5.7 kcal/mol, the “dH1 (binding mode 1)” value [3] was -3.6 kcal/mol and the “dH2 (binding mode 2)” value [3] was 6.8 kcal/mol. The Kd [4] was 500 nM, the dH [4] was -0.2 kcal/mol and the “dH1 (binding mode 1)” value [5] was -0.3 kcal/mol. For the same binder, the “dH2 (binding mode 2)” value [5] was 2.4 kcal/mol, the “dH1 (binding mode 1)” value [6] was -7.7 kcal/mol and the “dH2 (binding mode 2)” value [6] was 7.6 kcal/mol. The Kd (wild-type calmodulin) was 0.07 pM, the dH (wild-type calmodulin) was -6.1 kcal/mol and the Kd [7] was 360 nM. The dH [7] was -2.5 kcal/mol, the “dH1 (binding mode 1)” value [8] was -3.1 kcal/mol and the “dH2 (binding mode 2)” value [8] was -3.8 kcal/mol. For the same binder, the “dH1 (binding mode 1)” value [9] was -11.8 kcal/mol, the “dH2 (binding mode 2)” value [9] was 5.4 kcal/mol and the Kd [10] was 710 nM. The dH [10] was -5.1 kcal/mol, the “dH1 (binding mode 1)” value [11] was -6.5 kcal/mol and the “dH2 (binding mode 2)” value [11] was -8.5 kcal/mol. The “dH1 (binding mode 1)” value [12] was -15.5 kcal/mol and the “dH2 (binding mode 2)” value [12] was 1.7 kcal/mol.
